Data on one molecule can be found in paper doi:10.1101/2023.08.13.546412 (bioRxiv, 2023).

The target in this experiment is T1, GST-AtSK21 (Arabidopsis thaliana, UniProt Q39011 1-380).
T1 sequence (looked up): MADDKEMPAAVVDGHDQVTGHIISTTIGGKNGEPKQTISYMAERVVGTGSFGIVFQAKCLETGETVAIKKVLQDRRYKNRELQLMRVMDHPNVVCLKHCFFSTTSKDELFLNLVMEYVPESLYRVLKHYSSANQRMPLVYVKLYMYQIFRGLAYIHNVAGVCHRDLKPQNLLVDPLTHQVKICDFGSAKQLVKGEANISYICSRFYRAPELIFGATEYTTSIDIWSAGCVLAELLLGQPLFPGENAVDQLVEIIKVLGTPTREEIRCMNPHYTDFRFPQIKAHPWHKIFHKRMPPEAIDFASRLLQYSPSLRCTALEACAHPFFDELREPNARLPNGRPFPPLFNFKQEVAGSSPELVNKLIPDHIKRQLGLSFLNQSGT
Briefly: pull-down.

B1: MBP-WOX5 (natural protein, Arabidopsis thaliana, UniProt Q8H1D2 1-182, looked up)
chain: MSFSVKGRSLRGNNNGGTGTKCGRWNPTVEQLKILTDLFRAGLRTPTTDQIQKISTELSFYGKIESKNVFYWFQNHKARERQKRRKISIDFDHHHHQPSTRDVFEISEEDCQEEEKVIETLQLFPVNSFEDSNSKVDKMRARGNNQYREYIRETTTTSFSPYSSCGAEMEHPPPLDLRLSFL
Consider B1, for which the binding result was “binds”.
